Patent US20100080800A1 (AC IMMUNE S A, published 2010)
Blank lines part the entries; values can stand above or below the binder they belong to.

Assays:
[1] = molecular target: T1, soluble polymeric amyloid beta (UniProt P05067 672-713); assay: ELISA on plates coated with the amyloid preparation (55 µg/ml), AP-labelled anti-mouse IgG
T1 construct: also called Oligomer; polymeric soluble amyloid
Protocol: In order to evaluate the specificity of mC2 to different stages of polymerized amyloid protein, monomeric, polymeric soluble and fibrillic amyloid, an ELISA coated with these different stages of polymeric beta-amyloid was performed (FIG. 9). Monomers were prepared according to a modified method published by (Klein, 2002), soluble polymeric amyloid beta according to (Barghorn et al., 2005), whereas fibers were performed by incubation of amyloid (Bachem, Switzerland) with a final concentration of 1 μg/μl in Tris/HCl pH 7.4 at 37° C. for 5 days followed by a centrifugation step (10,000 rpm for 5 minutes). Then amyloid polymers were coated on an ELISA plates with a final concentration of 55 μg/ml and binding affinity ELISA by using an anti-mouse IgG monoclonal antibody (Jackson) labelled with alkaline phosphate was performed.

[2] = molecular target: Amyloid Beta (antigen of the Amyloid Beta ELISA) (UniProt P05067 672-713, limits assumed); assay: Amyloid Beta ELISA, antibody purified from NS0 cells
Sequence of Amyloid Beta (antigen of the Amyloid Beta ELISA) (P05067 672-713 limits assumed): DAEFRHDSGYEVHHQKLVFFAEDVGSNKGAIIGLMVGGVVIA

T1 sequence (P05067 672-713): as the sequence (P05067 672-713 limits assumed) above

- EC50 (read off the curve) [1]: ~0.4 µg/mL
B1: mouse monoclonal antibody ACI-01-Ab7C2 (antibody, V domains shown)
VH: EVQLVESGGGLVQPGGSLKLSCAASGFTFSSYGMSWVRQTPDKRLELVASINSNGGSTYYPDSVKGRFTISRDNAKNTLYLQMSSLKSEDTAMYYCASGDYWGQGSTLTVSS
VL: DVVMTQTPLSLPVSLGDQASISCRSSQSLVYSNGDTYLHWYLQKPGQSPKLLIYKVSNRFSGVPDRFSGSGSGTDFTLKISRVEAEDLGVYFCSQSTHVPWTFGGGTKLEIK
notes: Mouse IgG2b/kappa from hybridoma FP-12H3-C2 (DSM ACC2750); also called mC2; Mouse ACI-01-Ab-7-C2

- EC50 (read off the curve) [2]: ~4 ng/well
B2: C2HuVH4/HuVK2 humanized antibody (antibody, human IgG4 S228P, kappa, V domains shown)
VH: EVQLVESGGGLVQPGGSLRLSCAASGFTFSSYGMSWVRQAPGKGLELVASINSNGGSTYYPDSVKGRFTISRDNAKNSLYLQMNSLRAEDTAVYYCASGDYWGQGTTVTVSS
VL: DIVMTQSPLSLPVTPGEPASISCRSSQSLVYSNGDTYLHWYLQKPGQSPQLLIYKVSNRFSGVPDRFSGSGSGTDFTLKISRVEAEDVGVYFCSQSTHVPWTFGQGTKVEIKR
notes: also called C2HuVHAF4 with C2HuVK2
